The results in this text go back to the supplement of paper PMC9112550, “Optimization of the antimicrobial peptide Bac7 by deep mutational scanning” (BMC Biology, 2022).

For the series, the system named is Escherichia coli TOP10. Briefly: shrunken log2 fold change of peptide-encoding DNA abundance (4.5 h post-induction vs induction); higher = less antimicrobial activity (less host growth inhibition). The conditions noted are these: time post-induction: 4.5 h; library: site-saturation at positions 5, 18, 19, 20.
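Also: peptides expressed intracellularly from a pBAD plasmid library in pooled LB shake-flask culture, induced with 0.3% L-arabinose, DNA abundance read by NGS, three biological replicates, DESeq2 with apeglm shrinkage.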

For the sequence RRIRSRPPRLPRPRPRPRTAPRP, the “shrunken log2 fold change” value was determined as 0.0119.

Regarding RRIRVRPPRLPRPRPRPHDPPRP, the “shrunken log2 fold change” value was found to be 0.0847.

Take RRIRLRPPRLPRPRPRPQGCPRP: the “shrunken log2 fold change” value came to 0.0879.

Turning to RRIRNRPPRLPRPRPRPSMIPRP, the “shrunken log2 fold change” value is -0.427.

Consider RRIRIRPPRLPRPRPRPFHHPRP, for which the “shrunken log2 fold change” value was determined as 0.0886.

As for RRIRDRPPRLPRPRPRPTPPPRP, the “shrunken log2 fold change” value turned out to be 0.49.

For the sequence RRIRLRPPRLPRPRPRPCPTPRP, the “shrunken log2 fold change” value is 0.0726.

RRIRGRPPRLPRPRPRPMSQPRP: the “shrunken log2 fold change” value turned out to be 0.213.

Regarding RRIRPRPPRLPRPRPRPSRNPRP, the “shrunken log2 fold change” value is 0.0326.

RRIRRRPPRLPRPRPRPRCSPRP: the “shrunken log2 fold change” value came to 0.152.

In the case of RRIRERPPRLPRPRPRPHIHPRP, the “shrunken log2 fold change” value is -0.135.

Regarding RRIRSRPPRLPRPRPRPESDPRP, the “shrunken log2 fold change” value stood at 0.306.

For RRIRDRPPRLPRPRPRPCGLPRP, the “shrunken log2 fold change” value is 0.371.

RRIRPRPPRLPRPRPRPLHSPRP: the “shrunken log2 fold change” value was -0.207.

Regarding RRIRTRPPRLPRPRPRPHMEPRP, the “shrunken log2 fold change” value was 0.0103.

As to RRIRVRPPRLPRPRPRPKYVPRP, the “shrunken log2 fold change” value was -0.163.

Take RRIRPRPPRLPRPRPRPMQNPRP: the “shrunken log2 fold change” value came out at 0.201.

As for RRIRQRPPRLPRPRPRPVQDPRP, the “shrunken log2 fold change” value is -0.0297.

For RRIRCRPPRLPRPRPRPEATPRP, the “shrunken log2 fold change” value came to 0.95.

Turning to RRIRARPPRLPRPRPRPSTNPRP, the “shrunken log2 fold change” value was 0.0112.

Take RRIRIRPPRLPRPRPRPSSNPRP: the “shrunken log2 fold change” value was -0.313.

For RRIRMRPPRLPRPRPRPWPNPRP, the “shrunken log2 fold change” value was determined as 0.25.

As for RRIRKRPPRLPRPRPRPATWPRP, the “shrunken log2 fold change” value was found to be 0.573.

As to RRIRPRPPRLPRPRPRPHSYPRP, the “shrunken log2 fold change” value worked out at 0.0057.

On to RRIRERPPRLPRPRPRPYATPRP, for which the “shrunken log2 fold change” value was -0.359.

Turning to RRIRNRPPRLPRPRPRPFNFPRP, the “shrunken log2 fold change” value was 0.125.

Take RRIRHRPPRLPRPRPRPARSPRP: the “shrunken log2 fold change” value amounted to 0.0188.

For the sequence RRIRPRPPRLPRPRPRPPNYPRP, the “shrunken log2 fold change” value was -0.0609.

Regarding RRIRWRPPRLPRPRPRPEEFPRP, the “shrunken log2 fold change” value is 0.023.

As to RRIRCRPPRLPRPRPRPTEFPRP, the “shrunken log2 fold change” value is -0.0561.

As for RRIRMRPPRLPRPRPRPYFNPRP, the “shrunken log2 fold change” value is -0.822.

Regarding RRIRERPPRLPRPRPRPHFLPRP, the “shrunken log2 fold change” value is -0.458.

Turning to RRIRERPPRLPRPRPRPHHLPRP, the “shrunken log2 fold change” value was -0.143.

In the case of RRIRDRPPRLPRPRPRPNQRPRP, the “shrunken log2 fold change” value was -0.264.

RRIRDRPPRLPRPRPRPTWRPRP: the “shrunken log2 fold change” value amounted to 0.756.

RRIRTRPPRLPRPRPRPRIWPRP: the “shrunken log2 fold change” value was determined as 0.104.

In the case of RRIRTRPPRLPRPRPRPMNAPRP, the “shrunken log2 fold change” value was determined as 0.194.

Take RRIRERPPRLPRPRPRPTSYPRP: the “shrunken log2 fold change” value is -0.288.

RRIRGRPPRLPRPRPRPCCGPRP: the “shrunken log2 fold change” value worked out at 0.781.

For the sequence RRIRNRPPRLPRPRPRPLMLPRP, the “shrunken log2 fold change” value is -0.842.

Turning to RRIRWRPPRLPRPRPRPKQVPRP, the “shrunken log2 fold change” value came out at 0.285.

Take RRIRRRPPRLPRPRPRPEEMPRP: the “shrunken log2 fold change” value was 1.38.

On to RRIRQRPPRLPRPRPRPRMIPRP, for which the “shrunken log2 fold change” value was -0.227.

Take RRIRSRPPRLPRPRPRPPKPPRP: the “shrunken log2 fold change” value came out at 0.149.

Take RRIRGRPPRLPRPRPRPVCEPRP: the “shrunken log2 fold change” value worked out at 1.06.

For the sequence RRIRKRPPRLPRPRPRPEADPRP, the “shrunken log2 fold change” value is 0.00157.

On to RRIRKRPPRLPRPRPRPMQMPRP, for which the “shrunken log2 fold change” value is -0.00145.

With RRIRARPPRLPRPRPRPMNRPRP, the “shrunken log2 fold change” value is -0.107.

With RRIRGRPPRLPRPRPRPCHDPRP, the “shrunken log2 fold change” value was 0.458.

RRIRWRPPRLPRPRPRPCICPRP: the “shrunken log2 fold change” value came out at 0.16.

Turning to RRIRHRPPRLPRPRPRPNLEPRP, the “shrunken log2 fold change” value came to 0.127.

With RRIRGRPPRLPRPRPRPYWIPRP, the “shrunken log2 fold change” value was -0.311.

RRIRGRPPRLPRPRPRPMYPPRP: the “shrunken log2 fold change” value turned out to be 0.244.

Turning to RRIRIRPPRLPRPRPRPYFLPRP, the “shrunken log2 fold change” value was -0.921.

For RRIRARPPRLPRPRPRPVREPRP, the “shrunken log2 fold change” value is 1.01.

Regarding RRIRNRPPRLPRPRPRPDKPPRP, the “shrunken log2 fold change” value was -0.14.

Take RRIRMRPPRLPRPRPRPGKPPRP: the “shrunken log2 fold change” value worked out at 0.0496.

For RRIRTRPPRLPRPRPRPSRHPRP, the “shrunken log2 fold change” value is -0.481.

As for RRIRERPPRLPRPRPRPIVKPRP, the “shrunken log2 fold change” value was -0.0406.

For the sequence RRIRPRPPRLPRPRPRPELTPRP, the “shrunken log2 fold change” value stood at 0.537.

For RRIRLRPPRLPRPRPRPCDCPRP, the “shrunken log2 fold change” value is -0.0629.

On to RRIRERPPRLPRPRPRPIAPPRP, for which the “shrunken log2 fold change” value was 0.235.

On to RRIRPRPPRLPRPRPRPDMAPRP, for which the “shrunken log2 fold change” value is -0.119.

As to RRIRQRPPRLPRPRPRPTWKPRP, the “shrunken log2 fold change” value turned out to be 0.00778.

Turning to RRIRMRPPRLPRPRPRPWKCPRP, the “shrunken log2 fold change” value is -0.174.

RRIRTRPPRLPRPRPRPLRSPRP: the “shrunken log2 fold change” value was 0.387.

Take RRIRMRPPRLPRPRPRPDQRPRP: the “shrunken log2 fold change” value is -0.105.

Regarding RRIRARPPRLPRPRPRPQKEPRP, the “shrunken log2 fold change” value is -0.0202.

Turning to RRIRTRPPRLPRPRPRPNFDPRP, the “shrunken log2 fold change” value amounted to 0.232.

Regarding RRIRERPPRLPRPRPRPHMQPRP, the “shrunken log2 fold change” value is -0.551.

As to RRIRWRPPRLPRPRPRPTGHPRP, the “shrunken log2 fold change” value amounted to 0.317.

RRIRVRPPRLPRPRPRPEICPRP: the “shrunken log2 fold change” value is 0.2.

For RRIRRRPPRLPRPRPRPQHTPRP, the “shrunken log2 fold change” value stood at 0.191.

On to RRIRRRPPRLPRPRPRPLNMPRP, for which the “shrunken log2 fold change” value was -0.126.

On to RRIRSRPPRLPRPRPRPLVYPRP, for which the “shrunken log2 fold change” value was -0.206.

On to RRIRKRPPRLPRPRPRPFLQPRP, for which the “shrunken log2 fold change” value was -0.0765.

For the sequence RRIRYRPPRLPRPRPRPFFIPRP, the “shrunken log2 fold change” value is -1.11.

For the sequence RRIRHRPPRLPRPRPRPGAEPRP, the “shrunken log2 fold change” value is 0.13.

On to RRIRHRPPRLPRPRPRPCSDPRP, for which the “shrunken log2 fold change” value is -0.101.

As to RRIRWRPPRLPRPRPRPQFKPRP, the “shrunken log2 fold change” value was -0.0678.

Consider RRIRHRPPRLPRPRPRPVCQPRP, for which the “shrunken log2 fold change” value was -0.147.

In the case of RRIRHRPPRLPRPRPRPVDQPRP, the “shrunken log2 fold change” value worked out at 0.00586.

RRIRSRPPRLPRPRPRPENCPRP: the “shrunken log2 fold change” value was found to be 0.00362.

In the case of RRIRWRPPRLPRPRPRPISHPRP, the “shrunken log2 fold change” value was -0.24.

On to RRIRCRPPRLPRPRPRPHMSPRP, for which the “shrunken log2 fold change” value was -0.193.

On to RRIRRRPPRLPRPRPRPQHKPRP, for which the “shrunken log2 fold change” value was 0.0372.

In the case of RRIRCRPPRLPRPRPRPIALPRP, the “shrunken log2 fold change” value is -0.102.

Take RRIRFRPPRLPRPRPRPGVYPRP: the “shrunken log2 fold change” value is -0.0669.

As to RRIRPRPPRLPRPRPRPLRAPRP, the “shrunken log2 fold change” value came out at 0.86.

On to RRIRGRPPRLPRPRPRPCDSPRP, for which the “shrunken log2 fold change” value turned out to be 0.0374.

Regarding RRIRHRPPRLPRPRPRPPQLPRP, the “shrunken log2 fold change” value was -0.215.

As for RRIRVRPPRLPRPRPRPQWYPRP, the “shrunken log2 fold change” value was -0.327.

Consider RRIRPRPPRLPRPRPRPSECPRP, for which the “shrunken log2 fold change” value is -0.651.

Turning to RRIRCRPPRLPRPRPRPWICPRP, the “shrunken log2 fold change” value was -1.

For the sequence RRIRARPPRLPRPRPRPPFLPRP, the “shrunken log2 fold change” value came to 0.529.

On to RRIRMRPPRLPRPRPRPSDFPRP, for which the “shrunken log2 fold change” value is -0.764.

On to RRIRFRPPRLPRPRPRPYRSPRP, for which the “shrunken log2 fold change” value was -0.975.

Consider RRIRGRPPRLPRPRPRPEYCPRP, for which the “shrunken log2 fold change” value was 0.307.

For RRIRMRPPRLPRPRPRPVYFPRP, the “shrunken log2 fold change” value was -0.0299.

In the case of RRIRSRPPRLPRPRPRPIAYPRP, the “shrunken log2 fold change” value is -0.0673.

Turning to RRIRKRPPRLPRPRPRPNPVPRP, the “shrunken log2 fold change” value came to 0.0163.

In the case of RRIRQRPPRLPRPRPRPKYLPRP, the “shrunken log2 fold change” value is -0.0386.

In the case of RRIRQRPPRLPRPRPRPEESPRP, the “shrunken log2 fold change” value was 0.0313.

Consider RRIRCRPPRLPRPRPRPIFGPRP, for which the “shrunken log2 fold change” value is -0.0692.

On to RRIRGRPPRLPRPRPRPFCLPRP, for which the “shrunken log2 fold change” value was found to be 0.229.

Consider RRIRWRPPRLPRPRPRPFWKPRP, for which the “shrunken log2 fold change” value is -0.136.

For the sequence RRIRPRPPRLPRPRPRPNNFPRP, the “shrunken log2 fold change” value is -0.364.

Turning to RRIRGRPPRLPRPRPRPGTDPRP, the “shrunken log2 fold change” value worked out at 0.472.

In the case of RRIRTRPPRLPRPRPRPRTLPRP, the “shrunken log2 fold change” value is -0.121.

As to RRIRPRPPRLPRPRPRPFEMPRP, the “shrunken log2 fold change” value stood at 0.0143.

As to RRIRCRPPRLPRPRPRPFEKPRP, the “shrunken log2 fold change” value was -0.0689.

On to RRIRGRPPRLPRPRPRPCIPPRP, for which the “shrunken log2 fold change” value is -0.165.

For the sequence RRIRPRPPRLPRPRPRPKPEPRP, the “shrunken log2 fold change” value amounted to 0.311.

For the sequence RRIRLRPPRLPRPRPRPARHPRP, the “shrunken log2 fold change” value worked out at 0.148.

For RRIRKRPPRLPRPRPRPCEYPRP, the “shrunken log2 fold change” value turned out to be 0.0394.

For RRIRWRPPRLPRPRPRPGMDPRP, the “shrunken log2 fold change” value was 0.317.

For the sequence RRIRSRPPRLPRPRPRPNFQPRP, the “shrunken log2 fold change” value was -0.089.

For RRIRGRPPRLPRPRPRPFMHPRP, the “shrunken log2 fold change” value was found to be 0.416.

In the case of RRIRPRPPRLPRPRPRPTQRPRP, the “shrunken log2 fold change” value is 0.369.

Regarding RRIRKRPPRLPRPRPRPQVCPRP, the “shrunken log2 fold change” value came to 0.138.

On to RRIRERPPRLPRPRPRPGLMPRP, for which the “shrunken log2 fold change” value is -0.0269.

As for RRIRERPPRLPRPRPRPNILPRP, the “shrunken log2 fold change” value was -0.991.

Regarding RRIRHRPPRLPRPRPRPQMSPRP, the “shrunken log2 fold change” value is -0.0899.

With RRIRARPPRLPRPRPRPVTVPRP, the “shrunken log2 fold change” value amounted to 2.71.

On to RRIRERPPRLPRPRPRPVPHPRP, for which the “shrunken log2 fold change” value was -0.0329.
